Laboratory results published in article PMC5900715 (Genes & Development, 2018).
Ends that are not written are not given here.

Target: MDM2 NTD polypeptide (residues 10–139) (UniProt Q00987 10-139)
Test: fluorescence polarisation

Binder: fluorescein-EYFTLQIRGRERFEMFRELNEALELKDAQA [wild-type p53 OD peptide (residues 326–355)]
- binding result: binds

Binder: fluorescein-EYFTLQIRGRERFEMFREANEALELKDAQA (also: dimeric) [dimeric mutant p53 OD peptide (L344A, residues 326–355)]
- binding result: binds
